Measured values as given in patent publication US20220073643A1 (NANJING GENSCRIPT BIOTECH, published 2022).
Where “and” joins values, the source holds several entries; their conditions need not be identical. Equal values may be shown once.

Biological target: human Claudin18.2 (human)
Test: cell-based or functional assay

Row | CDC % Relative activity | CDC EC50 | Binder
1 | 88% | 1.48 mg/L | 231H4G11 (antibody, V domains shown) VH: QAYLQQSGAELVRSGASVKMSCKASGYTFTSHNIHWVKQTPGQGLEWIGYISPGNGYTNYNQKFRGKATLTADTSSSTAYMQISSLTSEDSAVYFCTRDYYGNSFAYWGQGTLVTVSA VL: DIVMTQSPSSLTEKAGERVSMSCKSSQSLFNSGSQKNYLTWYQQKPGQPPKLLIYWASTRESGVPDRFSGSGSGTDFTLTISSVQAEDLAVYYCQNNYWFPFTFGAGTKLELK
2 | 226% | 0.575 mg/L | 232C5E3 (antibody, V domains shown) VH: QAYLQQSGAELVRSGASVKMSCKASGYTFTSHNIHWIKQTPGKGLEWIGYIYPGNGGTNYNQKFKAKATLTADTSSSTAYMQISSLTSEDSAVYFCARDYYGNSFAYWGQGTLVTVSA VL: DIMMTQSPSSLTETAGEKVSMSCKSSQSLLNSGNQKNYLTWYQQKPGQPPKLLIYWASTRESGVPDRFSGSGSGTDFTLTISSVQAEDLAVYYCQNGYRFPFTFGAGTKLELK
3 | 707% | 0.271 mg/L | 217D9G2 (antibody, V domains shown) VH: QAYLQQSGAELVRSGASVKMSCKASGFTFTSYNIHWVKQTPGQGLEWIGYISPGNGGSNYNLNFKDKATLTAATSSTTAYMQISSLTSEDSAVYFCATGRGFAYWGQGTLVTVSA VL: DIVMTQSPSSLTVTPGEKVTMSCRSSQSLFNSGNQKNYLIWYQQKPGQPPKLLIYRASTRDSGVPDRFTGSGSGTDFTLTISNVQAEDLAVYYCQNDYSYPLTFGAGTKLELK
4 | 485% | 0.287 mg/L | 234B9D4 (antibody, V domains shown) VH: EIQLQQSGPDLMKPGSSVKISCTASGYSFTSYYIHWVKQSHGKTLEWIGYIDPFNGGTRYNQKFEGKAALTVDKSSTTAYMHLTSLTSDDSAVYYCASLRFFTYWGQGTLVTVSA VL: DIVMTQSPSSLTVTAGEKVTMTCKSSQSLLNSGNQENYLTWYQQKPGQPPKLLISRASTRQSGVPDRFTGSGSGTDFTLTISSVQAEDLAVYYCQNDYSYPLTFGAGTKLELK
5 | 74.9% | 1.74 mg/L | 232F1E4 (antibody, V domains shown) VH: QVQLKESGPGLVAPSQSLSITCTVSGFALTTYGVSWVRQPPGKGLEWLGVIWGDGSTHYHSALISRLSIRKDNSKSQVFLKLNSLQTDDTATYYCAKPGRGNAMDYWGQGTSVTVSS VL: DIVMSQSPSSLTVTAGEKVTMSCKSSQSLLNSGNQKNYLTWYQQKPGQSPKLLIYWASTRESGVPDRFTGSGSGTDFTLTISSMQAEDLAVYYCQNDYIYPLTFGAGTMLELK
6 | 603% | 0.318 mg/L | 219F9B8 (antibody, V domains shown) VH: QAYLQQSGAELVRSGASVRMSCKASGYTFTSYNMHWVKQTPGQGLEWIGYIYPGNGHTNYNQKFKGKATLTADTSSSTAYMQISSLTSEDSAVYFCATGRGFAYWGQGTLVTVSA VL: DIVMTQSPSSLTVTAGEKVTMSCKSSQSLLNSGNQKNYLTWYQQKPGQPPKLLIYRASTRESGVPDRFTGSGSGTDFTLTISSVQAEDLAVYYCQNDYSYPLTFGVGTKLELK
7 | 164% | 1.23 mg/L | 429G4E9 (antibody, V domains shown) VH: DVQLVESGGGLVQPGGSRKLSCAASGFTFSSFGMHWVRQAPEKGLEWVAYISSGSSPIYYADTVKGRFTISRDNPKNTLFLQMTSLRSEDTAMYFCATFYYGNSFAYWGQGTLVTVSA VL: DIVMTQSPSSLTVTAGEKVTMSCKSSQTLLNSGNQKNYLTWYQQKSGQPPKLLIYWASTRESGVPDRFTGSGSGTDFTLTISSVQAEDLAVYYCQNAYSYPVTFGSGTKVELK
8 | 73% | 1.78 mg/L | 226A4B5 (antibody, V domains shown) VH: QAYLQQSGAELVRSGASVRMSCKASGFTFTSYNIHWVKQTPGQGLEWIGYIYPGSGGSNYNQKFMGKATLTADTSSSTVYMQISSLTSEDSAVYFCATGRGFAYWGQGTLVTVSA VL: DIVMTQSPSSLTVTAGEKVTMSCKSSQSLFNSGNQKNYLTWYQQKPGQPPKLLIYRASTRESGVPDRFTGSGSGTDFTLTISSVQAEDLAVYYCQNDYSYPLTFGTGTKLELK
9 | 70.2% | 2.87 mg/L | 430B3F1 (antibody, V domains shown) VH: DVQLVESGGGLVQPGGSRKLSCAASGFTFSGFGMHWIRQTPEKGLEWVAYISSGGRPIYYADTVQGRFTISRDNPKNTLFLQMTSLRSEDTAMYFCARFYYGNSFDHWGQGTLVTISS VL: DIVMTQSPSFLTVTAGEKVTMSCKSSQSLLNSGNQKNYLTWYQQKPGQPPKLLIYWASTRESGVPDRFTGSGSGTDFTLTISSVQAEDLALYYCQNAYSFPLTFGAGTKLELK
10 | 62% | 2.1 mg/L | 234A10F7 (antibody, V domains shown) VH: QVQLQQSGAELVKPGASVKLSCKASGYTFTSFGINWLRQRPEQGLEWIGWIFPGDGNSKYNENFKGKATLTTDKSSSTAYMQLTRLTSEDSAVYFCARFYYGNSFAYWGQGTLVTVSA VL: DIVMTQSPSSLTVTTGQKVTMSCKSSQSLLNSGNQKNYLTWYQQKPGQPPKLLIYWAATRESGVPDRFTGSGSGTDFTLTISSVQAEDLAVYYCQNDYFYPFTFGAGTKLELK
11 | 121% | 1.59 mg/L | 213B10A4 (antibody, V domains shown) VH: QAYVQQSGAELVRSGASVKMSCRASGYTFTSYNMHWVKQTPGQGLEWIGYIYPGNGGTYYNQKFKGKATLTADTSSSTAYMQISSLTSEDSAVYFCATGRGFAYWGQGTLVTVSA VL: DIVMTQSPSSLTVTAGEKVTMSCKSSQSLLNSGNQKNYLTWYQQKPGQPPKLLIYRASTRESGVPDRFTGSGFGTDFTLTISSVQAEDLAVYYCQNDYSYPLTFGAGTKLELK

Continued, binder first:

Row | Binder | CDC % Relative activity | CDC EC50
12 | 235A10C9 (antibody, V domains shown) VH: QAYLQQSGAELVRSGASVKMSCKASGYTFASHNMHWVKQTPGQGLEWIGYIYPGNSGTKYNQKFTGKATLTADTSSSTAYMQITSLTSEDSAVYFCARDYYGNSFAYWGQGTLVTVSA VL: DIVMTQSPSSLTEKAGEKVSMRCKSSQSLLNSGNQKNYLTWYQQKPGQPPKLLIYWASTRESGVPDRFTGSGSGTDFTLTISSVQADDLAVYYCQNDYMFPFTFGAGTKLELK | 137% | 1.01 mg/L
13 | 234C9G5 (antibody, V domains shown) VH: QAYLQQSGAELVRSGASVKMSCKASGYAFTSHNMHWVKQTPGQGLEWIGYISPGNGYTNYNQKFRGKATLTADTSSSTAYMQIGSLTSEDSAVYFCTRDYYGNSFAYWGQGTLVTVSA VL: DIVMTQSPSSLTEKAGERVSMSCKSSQSLFNSGNQKNYLTWYQQKPGQPPKLLIYWASTRESGVPDRFTGSGSGTDFTLTISSVQAEDLAVYYCQNNYWFPFTFGAGTKLELK | 175% | 0.794 mg/L
14 | 182D10F1 (antibody, V domains shown) VH: QAYLQQSGAELVRSGASVKMSCKASGYTFSSYNMHWVKQTPGQGLEWIGYIYPGNGGTNYNQKFKGKATLTADTSSSTAYMQISSLTSEDSAVYFCLTGRGFTYWGQGTLVTVSA VL: DIVMTQSPSSLTVTAGEKVTMNCKSSQSLFNSGNQKNYLTWYQQKPGQPPKLLIYRASTRESGVPDRFTGSGSGTDFTLTISSVQAEDLAVYYCQNDYSYPLTFGVGTKLELK | 195% | 0.811 mg/L
15 | 232D7C8 (antibody, V domains shown) VH: QAYLQQSGAELVRSGASVKMSCKASGYTFTSHNMHWVKQTPGQGLEWIGYIYPGNGGTNYNQKFKGKATLTADTSSSTAYMQISSLTSEDSAVYFCARDYFGNSFAYWGQGTLVTVSA VL: DILMTQSPSSLTATAGEKVSMSCKSSQSLFNSGNQRNYLTWYQQRPGQPPKLLIYWASTRESGVPDRFTGSGSGTDFTLTISSVQAEDLAVYYCQNDYRYPFTFGAGTKLELK | 88.9% | 1.46 mg/L
16 | 185F2G12 (antibody, V domains shown) VH: QAYLQQSGAELVRSGASVKMSCKASGYTFTSYNMHWVRQTPGQGLEWIGYIYPGNGGTNYSQKFKGKASLTADTSSTTAYMQISSLTSEDSAVYFCATGRGFAYWGQGTLVTVSA VL: DIVMTQSPSSLTVTAGEKVTLSCKSSQSLFNTGNQKNYLTWYQQKPGQPPKLLIFRASTRESGVPDRFTGSGFGTDFTLTISSVQAEDLAVYYCQNDFSYPLTFGAGTKLELK | 543% | 0.291 mg/L
17 | 233D5E5 (antibody, V domains shown) VH: QAYLQQSGAELVRSGASVKMSCKASGYTFTSHNMHWVKQTPRQGLEWIGYIYPGNGDTNYNQKFKGKATLTADTSSSTAYMQISSLTSEDSAVYFCTRDYYGNSFAYWGQGTLVTVSA VL: DIVMTQSPSSLTEKAGERVSMSCKSSQSLFNSGNQKNYLTWYQQKPGQPPKLLIYWASTRESGVPDRFTGSGSGTDFTLTISSVQAEDLAVYYCQNAYWYPFTFGAGTKLELK | 87.3% | 1.49 mg/L
18 | 429H6C5 (antibody, V domains shown) VH: DVQLVESGGGLVQPGGSRKLSCAASGFTFSSFGMHWVRQAPEKELEWVAYISSGSSTIYYAHTVKGRFTISRDNPKNTLFLRMTSLGSEDTAMYYCVRFYYGNSFVNWGQGTLVTVSA VL: DIVMTQSPSSLTATAGEKVTMSCKSSQSLLNSGNQKNYLTWYQQKPGQPPKMLIYWASTRESGVPDRFAGSGSGTDFTLTISSVQAEDLAVYYCQNAYIYPLTFGAGTRLELK | 331% | 0.607 mg/L
19 | 222B6G5 (antibody, V domains shown) VH: QTYLQQSGAELVRSGASVKMSCKASGYTFTSYNIHWVKQTPGQGLEWIGYISPGNGGTYYNLKFKDKATLTTATSSSTAYMQISSLTSEDSAVYFCATGRGFAYWGQGTLVTVSA VL: DIVMTQSPSSLTVTPGEKVTMSCKSSQSLFNSGNQKNYLIWYQQKPGQPPKLLIYRASTRDSGVPDRFTGSGSGTDFTLTISNVQAEDLAVYYCQNDYSYPLTFGAGTKLELK | – | 0.278 mg/L and 0.259 mg/L
20 | 231C11E9 (antibody, V domains shown) VH: EVMLVESGGGLVKPGGSLKLSCAASGFTFNNYVMCWVRQTPEKRLEWVATISSGNFYTYYPDSVKGRFTISRDNAKNTLYLQMSSLRSEDTAIYYCASLGRGNALDNWGQGTSVTVSS VL: DIVMTQSPASLTVTAKEKVTMSCRSSQSLLNSGNQKNYLTWYQQKPGQPPKLLIYWASTRESGVPDRFTGSGSGTDFTLTISSVQAEDLAVYYCQNDYSYPFTFGSGTKLEIK | 83.7% | 1.55 mg/L
21 | 234E1F12 (antibody, V domains shown) VH: QAYLQQSGAELVRSGASVKMSCKASGYTFTSHNMHWVKQTPRQGLEWIGYIYPGNGDTNYNQKFKGKATLTADTSSSTAYMQISSLTSEDSAVYFCTRDYYGNSFAYWGQGTLVTVSA VL: DIVMTQSPSSLTEKAGERVSMSCKSSQSLFNSGNQKNYLTWYQQKPGQPPKLLIYWASTRESGVPDRFTGSGSGTDFTLTISSVQAEDLAVYYCQNAYWYPFTFGAGTKLELK | 126% | 1.1 mg/L
